Test results published in paper PMC8134462, “Cross-reactive serum and memory B-cell responses to spike protein in SARS-CoV-2 and endemic coronavirus infection” (Nature Communications, 2021).
Substitutions are numbered along the chain they refer to.

B1: second SARS-CoV-2/HCoV-HKU1 cross-reactive mAb from the CC40 donor (its name is not printed in the text) (antibody, V domains shown)
VH: EVQLVESGGGVVQPGRSLRLSCVASGFTFSNYGMHWVRQAPGKGLEWVAVMSYDGSVTYYGDSVRGRFTISRDNSKNTLYLQMSSLRTDDTGVYYCAKGQPLDDIWGLGTLVTVSS
VL: EIVMTQSPLSLPVSLGQSASISCRSSQSLVHTDGITYLSWFQQRPGQSPRRLLYKVSNRDSGVPDRFSGSGSGTDFTLKISRVEAEDVGVYYCLQGTYWPWTFGQGTKVEIK
notes: also called one of the two cross-reactive mAbs from the CC40 donor
B2: mAb CC9.1 (antibody, V domains shown)
VH: EVQLVESGGGLVQPGRSLRLSCVAPGFTLGGYGMHWVRQAPGKGLEWVGLISYDGSVQKYGSSVKGRFTISKDNSKNTLYLEMNSLRADDTAVYFCVKGASLGDNWGQGTLVTVSS
VL: EIVMTQSPLSLPVTLGQPASISCRSSQSLVYSDGDTYMSWFHQRPGQSPRRLIYKVSNRDSGVPDRFSGSGSGTDFTLKISRVEAEDVGVYYCMQGTHWPYTFGPGTKVEIK
B3: mAb CC9.2 (IgG) (antibody, V domains shown)
VH: B2 VH
VL: B2 VL with S61F
B4: Fab CC9.2 (Fab, V domains shown)
VH: B2 VH
VL: B2 VL with S61F
notes: also called CC9.2 Fab

Columns and labels:
[1] = molecular target: T1, SARS-CoV-2 N-terminal domain-NTD (residue 1-290) (SARS-CoV-2, Wuhan-Hu-1 (MN908947), UniProt P0DTC2); experiment: BLI; details: both partners purified
T1 construct: source: FreeStyle293F, transfected, purified (Ni-NTA, SEC)

[2] = molecular target: T2, SARS-CoV-2 receptor-binding domain-RBD (residue 320-527) (SARS-CoV-2, Wuhan-Hu-1 (MN908947), UniProt P0DTC2); experiment: BLI; details: both partners purified
T2 construct: source: FreeStyle293F, transfected, purified (Ni-NTA, SEC)

[3] = molecular target: T3, SARS-CoV-2 RBD-SD1 (residue 320-591) (SARS-CoV-2, Wuhan-Hu-1 (MN908947), UniProt P0DTC2); experiment: BLI; details: both partners purified
T3 construct: source: FreeStyle293F, transfected, purified (Ni-NTA, SEC)

[4] = molecular target: T4, SARS-CoV-2 RBD-SD1-2 (residue 320-681) (SARS-CoV-2, Wuhan-Hu-1 (MN908947), UniProt P0DTC2); experiment: BLI; details: both partners purified
T4 construct: source: FreeStyle293F, transfected, purified (Ni-NTA, SEC)

[5] = molecular target: T5, SARS-CoV-2 spike protein, full-length, expressed on the HEK293T cell surface (SARS-CoV-2, Wuhan-Hu-1 (MN908947), UniProt P0DTC2); experiment: flow cytometry on cells; details: one partner purified
T5 construct: source: HEK293T, transfected (phCMV3), on the cell surface

[6] = molecular target: T6, HCoV-HKU1 spike protein, full-length, expressed on the HEK293T cell surface (HCoV-HKU1, isolate N1 (YP_173238.1), UniProt Q5MQD0); experiment: flow cytometry on cells; details: one partner purified
T6 construct: also called HKU1-CoV S; source: HEK293T, transfected (phCMV3), on the cell surface

[7] = molecular target: T7, HCoV-OC43 spike protein, full-length, expressed on the HEK293T cell surface (HCoV-OC43); experiment: flow cytometry on cells; details: one partner purified
T7 construct: source: HEK293T, transfected (phCMV3), on the cell surface

[8] = molecular target: T8, HCoV-NL63 spike protein, full-length, expressed on the HEK293T cell surface (HCoV-NL63 (YP_003767.1), UniProt Q6Q1S2); experiment: flow cytometry on cells; details: one partner purified
T8 construct: source: HEK293T, transfected (phCMV3), on the cell surface

[9] = molecular target: T9, HCoV-229E spike protein, full-length, expressed on the HEK293T cell surface (HCoV-229E (NP_073551.1), UniProt P15423); experiment: flow cytometry on cells; details: one partner purified
T9 construct: source: HEK293T, transfected (phCMV3), on the cell surface

[10] = molecular target: T10, HCoV-HKU1 soluble S ectodomain protein (residue 1-1295), prefusion-stabilized, with T4 fibritin trimerization … (HCoV-HKU1, isolate N1 (YP_173238.1), UniProt Q5MQD0, A1071/L1072 replaced by proline residues); experiment: BLI; details: both partners purified
T10 construct: also called HCoV-HKU1 S-protein; HKU1-CoV S protein; source: FreeStyle293F, transfected, purified (Ni-NTA or GNL column, SEC)

| Binder | binding result [1] | binding result [2] | binding result [3] | binding result [4] | binding result [5] | binding result [6] | binding result [7] | binding result [8] | binding result [9] | binding result [10] |
| --- | --- | --- | --- | --- | --- | --- | --- | --- | --- | --- |
| B1 | no binding | no binding | no binding | no binding | binds | binds | binds | no binding | no binding |  |
| B2 | no binding | no binding | no binding | no binding | binds | binds | binds | no binding | no binding |  |
| B3 | no binding | no binding | no binding | no binding | binds | binds | binds | no binding | no binding | binds |
| B4 |  |  |  |  |  |  |  |  |  | binds |
